Assay [1] addresses T1, recombinant human B7-H3-mFc protein (human) (UniProt Q5ZPR3).
T1 sequence: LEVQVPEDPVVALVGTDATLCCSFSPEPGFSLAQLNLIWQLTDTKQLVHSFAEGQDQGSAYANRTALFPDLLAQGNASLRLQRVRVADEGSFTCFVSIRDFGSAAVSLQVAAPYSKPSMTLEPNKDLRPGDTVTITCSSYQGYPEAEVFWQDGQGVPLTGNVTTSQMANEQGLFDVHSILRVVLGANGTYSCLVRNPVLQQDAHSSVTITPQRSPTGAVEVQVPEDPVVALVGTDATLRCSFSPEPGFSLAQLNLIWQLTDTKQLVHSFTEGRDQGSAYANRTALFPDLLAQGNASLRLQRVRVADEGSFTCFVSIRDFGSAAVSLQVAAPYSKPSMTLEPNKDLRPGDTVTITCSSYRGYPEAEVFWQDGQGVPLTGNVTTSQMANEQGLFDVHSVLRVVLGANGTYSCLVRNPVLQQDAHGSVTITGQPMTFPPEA
Kind of assay: competitive binding ELISA on B7-H3 protein, competitor mAb 91H06. In general terms: In an ELISA, binding on a coated surface is turned into a signal by an enzyme label.

The target of assay [2] is T1, recombinant human B7-H3-mFc protein (human). Briefly: competitive binding ELISA on B7-H3 protein, no competitor.
Assay [3] has the same target. Kind of assay: competitive binding ELISA on B7-H3 protein, competitor Ifinatamab (4 µg/mL).
For assay [4], the target named is recombinant cynomolgus monkey B7-H3 protein (cynomolgus monkey). Kind of assay: SPR (Biacore), antibody captured on anti-human IgG chip, B7-H3 protein injected.
For assay [5] the target is unchanged. Briefly: ELISA, plate coated with cynomolgus monkey B7-H3.

The values that follow come from US20250197501A1.

B1: Ifinatamab-biotin (antibody, INN chains, looked up, V domains shown)
VH: QVQLVQSGAEVKKPGSSVKVSCKASGYTFTNYVMHWVRQAPGQGLEWMGYINPYNDDVKYNEKFKGRVTITADESTSTAYMELSSLRSEDTAVYYCARWGYYGSPLYYFDYWGQGTLVTVSS
VL: EIVLTQSPATLSLSPGERATLSCRASSRLIYMHWYQQKPGQAPRPLIYATSNLASGIPARFSGSGSGTDFTLTISSLEPEDFAVYYCQQWNSNPPTFGQGTKVEIK
modifications: biotin
For orientation: EC50 means the concentration needed to bring the measured effect to its halfway point. Take B1: the figures for the EC50 in assay [1], in assay [2] and in assay [3] were 0.0346 nM, 0.0331 nM and 1.78 nM, respectively.

B2: mAb 91H06 (antibody, V domains shown)
VH: EVQLVESGGGLVQPGGSLRLSCAASGFTFSDYGMGWVRQAPGKGLEWVSSISWDSSSKEYADSVKGRFTISRDNSKNTLYLQMNSLRAEDTAVYYCARAWIAIIGGGAHFDYWGQGTLVTVSS
VL: DIQMTQSPSSLSASVGDRVTITCRASQSVSSHLAWYQQKPGKAPKLLIYLTSSLQSGVPSRFSGSGSGTDFTLTISSLQPEDFATYYCMQSKSLPFTFGQGTKVEIKR
By Kd is commonly meant a measure of binding affinity in units of concentration. As to B2, the Kd in assay [4] was found to be 0.471 nM. Also, in assay [5], the EC50 is 0.0244 nM.
